Assay results taken from US20040092714A1.

Biological target: OSCAR specific ligand expressed on the surface of primary murine osteoblast cells (murine)
Assay: cell-based or functional assay

soluble murine OSCAR-Ig fusion polypeptide (extracellular domain of murine OSCAR fused to the Fc region of human IgG1) (Fc fusion)
dentine resorption pits per slice (pits per slice): 7
inhibition of dentine resorption (fold): > 10 fold
